The nature of data set [1]: Emission activity of divided enzyme (Escherichia coli lysates, single or mixed). Type of data set: biochemical. The conditions noted are these: Experiment 11-2, coelenterazine 5 μM, Enspire multi-mode plate reader. The text has this:
picALuc30 was divided to prepare plasmids (pET32 vectors) for expression of polypeptides from position 4 to 22, from position 23 to 120, from position 4 to 47, from position 48 to 120, from position 4 to 77, from position 80 to 120, from position 4 to 90, and from position 91 to 120 of the amino acid sequence in SEQ ID NO: 51. In the same manner as in Experiment 10, the plasmid was introduced into Escherichia coli SHuffle T7 Express lysY, and from the cultured bacterial cells, a lysate was obtained. To 100 μL of a single lysate or a mixture of lysates as specified in FIG. 25, coelenterazine was added as a substrate at a final concentration of 5 μM, followed by measuring the emission value by using an Infinite (registered trademark) 200 PRO plate reader (TECAN). Because the lysate contained luciferase fragments at high concentrations, it was expected that when fragment-containing lysates were mixed, two types of fragments were highly likely to encounter each other and these two fragments could form the original luciferase structure.
picALuc30 was divided to further prepare plasmids (pET32 vectors) for expression of polypeptides from position 4 to 58, from position 4 to 64, from position 4 to 72, from position 65 to 120, from position 73 to 120, and from position 104 to 120 of the amino acid sequence in SEQ ID NO: 51. In Experiment 11-2, emission values were measured in the same manner as in Experiment 11-1 except that an Enspire multi-mode plate reader (PerkinElmer™) was used for emission value detection.

Data set [2] is described as follows: Emission value of secretion-expressed luciferase in COS-7 culture medium, coelenterazine substrate. The conditions noted are these: for emission values (rank order): Experiment 5. Type of data set: biochemical. On the procedure: (§1) • (1) COS-7 cells derived from the kidney of African green monkey were inoculated in a 24-well dish, and on the next day, subconfluency was attained. • (2) 25 μL of Opti-MEM (Thermo Fisher Scientific™), 400 ng (2 μL) of the plasmid, and 1 μL of P3000 (Invitrogen™, Waltham, MA) were mixed. • (3) 25 μL of Opti-MEM and 1 μL of lipofectoamine 3000 (Invitrogen™) were mixed. • (4) (2) and (3) were mixed together, followed by incubation at room temperature for 5 minutes. • (5) The mixture was added to the medium of (1). • (6) 500 μL of Dulbecco's modified Eagle's medium was added, followed by culturing the cells at 37° C. for 1 day and then collecting the medium. The medium contained secretion-expressed luciferase. • (7) To 100 μL of the medium, coelenterazine was added as a substrate at a final concentration of 5 μM, followed by measuring the emission value by using Enspire multi-mode plate reader (PerkinElmer™, Waltham, MA).
By the same manner as in Experiment 2, the emission value was measured.
The emission value was measured in the same manner as in Experiment 2 except that the final concentration of coelenterazine was changed to 0.5 μM. […] The emission value was measured in the same manner as in Experiment 2 except that the final concentration of coelenterazine was changed to 5 μM.

Data set [3] in a line: Emission value of secretion-expressed luciferase in COS-7 culture medium, coelenterazine h substrate. Type of data set: biochemical. The conditions noted are these: Experiment 5. How it is done:
as §1
The emission value was measured in the same manner as in Experiment 2 except that coelenterazine h was used as a substrate in a final concentration of 5 μM. […] The emission value was measured in the same manner as in Experiment 2 except that coelenterazine h was used as a substrate in a final concentration of 25 μM.

Data set [4] can be described thus: Emission value of secretion-expressed luciferase in COS-7 culture medium, furimazine substrate. Type of data set: biochemical. The conditions noted are these: Experiment 5; furimazine in the concentration recommended by the manufacturer. How it is done: as §1
The emission value was measured in the same manner as in Experiment 2 except that furimazine, which was available from Promega™ as a NanoLuc® substrate, was used as a substrate in the concentration recommended by the manufacturer.

Data set [5] can be described thus: Stability of protein terminus: Western blot detection of Flag-tag and His-tag in culture supernatant. The note with it: secretion-expressed luciferase in COS-7 culture supernatant; Western blotting. The text has this: In the same manner as in Experiment 2, the plasmid was transfected into COS-7 cells and culture supernatant was collected. Flag-tag added to the N terminus of each secretion-expressed luciferase and His-tag added to the C terminus thereof were detected by Western blotting (SDS-PAGE, Mini-PROTEAN TGX Gel StainFree 4-15% (Bio-Rad™, Hercules, CA)) (FIG. 17). The antibodies used were Anti 6×Histidine, Monoclonal Antibody (9C11), Peroxidase Conjugated (manufactured by FUJIFILM Wako Pure Chemical Corporation, 1:1000) and Monoclonal ANTI-FLAG (R) M2-Peroxidase (HRP) antibody produced in mouse, clone M2 (manufactured by Sigma-Aldrich™, St. Louis, MO, 1/1000), respectively, and detection was performed with Amesham Imager 680 (Cytiva™, Marlborough, MA).
In general terms: A western blot detects proteins with antibodies after separation by electrophoresis.

The nature of data set [6]: Measurement of specific activity (enzyme concentrations adjusted by Western blot signal). Type of data set: biochemical. On the procedure:
The specific activities of NanoLuc®, ALuc30 wt, and picALuc30 were measured, with their enzyme concentrations adjusted based on the Western blot signal intensity obtained in Experiment 6.

[7] abbreviates: Experiment 2, coelenterazine 5 μM, medium of transfected COS-7 cells.

B1: position 4 to 64 and position 65 to 120: combination of polypeptides of these positions of SEQ ID NO: 51 (SEQ ID NOs: 79 and 83) (protein)
chain 1: GKKLPLEVLKELEANAQKAGCTRGCLICLSHIKCTAKMKKWLPGRCESWEGDKETGQGGIG
chain 2: EAIVDIPEIPGFKELAPMEQFIAQVDLCADCTTGCLKGLANVKCSALLKKWLPSRC
modifications: part of picALuc30
As for B1, the emission value entry in data set [1] is “high emission value”.

B2: position 4 to 64 and position 73 to 120: combination of polypeptides of these positions of SEQ ID NO: 51 (SEQ ID NOs: 79 and 84) (protein)
chain 1: B1 chain 1
chain 2: IPGFKELAPMEQFIAQVDLCADCTTGCLKGLANVKCSALLKKWLPSRC
modifications: part of picALuc30
For the molecule B2, the emission value result in data set [1] is on record as “high emission value”.

B3: ALuc30 wt: artificial luciferase; positions 20 to 212 of ALuc30 (SEQ ID NO: 28) without a signal sequence; about 21 kDa (protein)
chain: HHHHHHHHDIVGVEGKFGTTDLETDLFTIVEDMNVISRDTDVDANRADRGRRGKLPGKKLPLEVLKELEANAQKAGCTRGCLICLSHIKCTAKMKKWLPGRCESWEGDKETGQGGIGEAIVDIPEIPGFKELAPMEQFIAQVDLCADCTTGCLKGLANVKCSALLKKWLPSRCAGFADKIQAQVDTIKGAGGS
modifications: ALuc30
notes: artificial luciferase; about 21 kDa
Consider B3, for which the “emission values (rank order)” value in data set [2] (coelenterazine 0.5 μM) is listed as “NanoLuc®>>picALuc30>TurboLuc™>ALuc30 wt>GLuc”; in data set [2] (coelenterazine 5 μM), “ALuc30 wt=picALuc30>NanoLuc®>TurboLuc™>GLuc”; in data set [3] (coelenterazine h 5 μM) it was “TurboLuc™=ALuc30 wt>>NanoLuc®>picALuc30>GLuc”; in data set [3] (coelenterazine h 25 μM) it was “picALuc30>>NanoLuc®=TurboLuc™=ALuc30 wt>>GLuc”. The emission value result in data set [4] was “low as compared to NanoLuc® and TurboLuc™”. The “stability of protein termini (Flag-tag and His-tag detection)” value in data set [5] is given as “both termini remaining”. In data set [6] (Experiment 7), the maximum emission value result is listed as “same maximum emission value as NanoLuc®”. The specific activity result in data set [6] (coelenterazine or coelenterazine h as substrate) is “the same as the specific activity of picALuc”.

B4: position 4 to 72 and position 73 to 120: combination of polypeptides of these positions of SEQ ID NO: 51 (SEQ ID NOs: 80 and 84) (protein)
chain 1: GKKLPLEVLKELEANAQKAGCTRGCLICLSHIKCTAKMKKWLPGRCESWEGDKETGQGGIGEAIVDIPE
chain 2: B2 chain 2
modifications: part of picALuc30
For the molecule B4, the emission value result in data set [1] was “high emission value”.

B5: position 4 to 72 and position 104 to 120: combination of polypeptides of these positions of SEQ ID NO: 51 (SEQ ID NOs: 80 and 85) (protein)
chain 1: B4 chain 1
chain 2: ANVKCSALLKKWLPSRC
modifications: part of picALuc30
For B5, the emission value entry in data set [1] is “high emission value”.

B6: picALuc48: SEQ ID NO: 53; ALuc48 with deletion of N terminus and C terminus, corresponding to picALuc30 (protein)
chain: HGGLPGKKMPLEVLLELEANAQRAGCTRGCLICLSKIKCTAKMKKWLPGRCESWAGDKETGQGGITEEETVDIPEIPGFKDLEPMEQFIAQVDLCVDCTTGCLKGLANVKCSDLLKKWLPSRCAT
modifications: picALuc48
notes: ALuc48 with deletion of N terminus and C terminus, corresponding to picALuc30
For the molecule B6, the emission value result in data set [2] (setting [7]) is recorded as “sufficiently high”.

B7: ALuc30Δloop2N1: SEQ ID NO: 54; ALuc30 wt with N terminus (1 to 49) and loop 2 (122 to 128) deleted, Gly-Ser inserted; 14 kDa (protein)
chain: RGRRGKLPGKKLPLEVLKELEANAQKAGCTRGCLICLSHIKCTAKMKKWLPGRCESWEGDKETGQGGIGEAIVGSFKELAPMEQFIAQVDLCADCTTGCLKGLANVKCSALLKKWLPSRCAGFADKIQAQVDTIKGAGGS
modifications: ALuc30_del_loop2N1
notes: ALuc30 wt with N terminus (1 to 49) and loop 2 (122 to 128) deleted, Gly-Ser inserted; 14 kDa
As for B7, in data set [2] (Experiment 4, same manner as Experiment 2 (coelenterazine 5 μM)), the emission value result was “about half the emission value of ALuc30ΔN1”.

B8: position 4 to 58 and position 23 to 120: combination of polypeptides of these positions of SEQ ID NO: 51 (SEQ ID NOs: 78 and 81) (protein)
chain 1: GKKLPLEVLKELEANAQKAGCTRGCLICLSHIKCTAKMKKWLPGRCESWEGDKET
chain 2: GCTRGCLICLSHIKCTAKMKKWLPGRCESWEGDKETGQGGIGEAIVDIPEIPGFKELAPMEQFIAQVDLCADCTTGCLKGLANVKCSALLKKWLPSRC
modifications: part of picALuc30
As to B8, the emission value result in data set [1] is given as “high emission value”.

B9: position 4 to 72 and position 23 to 120: combination of polypeptides of these positions of SEQ ID NO: 51 (SEQ ID NOs: 80 and 81) (protein)
chain 1: B4 chain 1
chain 2: B8 chain 2
modifications: part of picALuc30
Consider B9, for which the emission value entry in data set [1] is reported as “high emission value”.

B10: picALuc16: SEQ ID NO: 52; ALuc16 with deletion of N terminus and C terminus, corresponding to picALuc30 (protein)
chain: KLPGKKLPLEVLKELEANAQKAGCTRGCLICLSHIKCTAKMKKWLPGRCESWEGDKETGQGGIGEAIVDIPEIPGFKDLEPMEQFIAQVDLCVDCTTGCLKGLANVKCSDLLKKWLPSRCAT
modifications: picALuc16
notes: ALuc16 with deletion of N terminus and C terminus, corresponding to picALuc30
With B10, the emission value result in data set [2] (setting [7]) is “sufficiently high”.

The values are drawn from patent publication US12578329B2, “Reagent kit containing polypeptide for use in detection of intermolecular interactions” (SHIMADZU CORPORATION, priority 2021, dated 2026).
